Measurements taken from the Human Domainome abundance scans (Beltran et al. 2025).
± gives the uncertainty stated by the source.

B1: Homeobox protein cut-like 1, residues 941 to 1008; numbered along this chain, P39880 (parent)
chain: QEVDTIELTRQVKEKLAKNGICQRIFGEKVLGLSQGSVSDMLSRPKPWSKLTQKGREPFIRMQLWLNG

Variants of: B1
Test: abundance fitness (aPCA) (normalised: wild type 0, dead -1); higher = more abundant; growth selection in yeast, the domain comes from the species named
Conditions: Homo sapiens

R44E and R44H are within error of each other in abundance fitness: -0.176 ± 0.072 for the first, -0.125 ± 0.1 for the second.

Going from R44Q to G36L, the abundance fitness rises from -0.241 ± 0.085 to -0.025 ± 0.046.

G36I and G36D are within error of each other in abundance fitness: -0.078 ± 0.1 for the first, 0.028 ± 0.099 for the second.

G36T and G36R are within error of each other in abundance fitness: 0.003 ± 0.066 for the first, 0.033 ± 0.047 for the second.

L33W and L33G are within error of each other in abundance fitness: -0.115 ± 0.076 for the first, -0.219 ± 0.061 for the second.

L33H and L33K are within error of each other in abundance fitness: -0.174 ± 0.083 for the first, -0.092 ± 0.07 for the second.

Q53T and Q53R are within error of each other in abundance fitness: -0.014 ± 0.075 for the first, -0.053 ± 0.051 for the second.

Q53M and Q53I are within error of each other in abundance fitness: -0.095 ± 0.076 for the first, -0.119 ± 0.1 for the second.

First: Q53C
Second: V38E
The abundance fitness of the first is higher: 0.012 ± 0.11 for the first, -0.282 ± 0.063 for the second.

V38C and V38M are within error of each other in abundance fitness: -0.096 ± 0.08 for the first, -0.147 ± 0.084 for the second.

Compared with V38R, L8E is higher in abundance fitness: -0.22 ± 0.044 for the first, 0.011 ± 0.083 for the second.

L8N and L8D are within error of each other in abundance fitness: 0.011 ± 0.092 for the first, 0.076 ± 0.11 for the second.

Going from L8W to L8A, the abundance fitness rises from -0.157 ± 0.078 to 0.051 ± 0.069.

Compared with L8F, L8G is higher in abundance fitness: -0.152 ± 0.067 for the first, 0.039 ± 0.081 for the second.

S37G and S37V are within error of each other in abundance fitness: -0.123 ± 0.051 for the first, -0.039 ± 0.063 for the second.

Going from S37Q to S37W, the abundance fitness falls from 0.111 ± 0.098 to -0.108 ± 0.069.

First: S37D
Second: S37N
The abundance fitness of the first is higher: 0.251 ± 0.093 for the first, -0.033 ± 0.078 for the second.

First: S37P
Second: S37E
The abundance fitness of the first is lower: -0.189 ± 0.073 for the first, 0.052 ± 0.1 for the second.

E28N and E28I are within error of each other in abundance fitness: -0.134 ± 0.11 for the first, -0.277 ± 0.094 for the second.

E28K and E28C are within error of each other in abundance fitness: -0.106 ± 0.076 for the first, -0.286 ± 0.11 for the second.

L51Q and L51R are within error of each other in abundance fitness: -0.969 ± 0.12 for the first, -0.93 ± 0.063 for the second.

P58V and P58S are within error of each other in abundance fitness: -0.014 ± 0.06 for the first, -0.093 ± 0.063 for the second.

First: P58G
Second: P58N
The abundance fitness of the first is lower: -0.201 ± 0.081 for the first, 0.025 ± 0.089 for the second.

P47R and P47C are within error of each other in abundance fitness: -0.134 ± 0.052 for the first, -0.086 ± 0.091 for the second.

P47K and P47S are within error of each other in abundance fitness: -0.029 ± 0.071 for the first, -0.086 ± 0.066 for the second.

P47D and P47Q are within error of each other in abundance fitness: -0.158 ± 0.13 for the first, -0.068 ± 0.074 for the second.

P47E and P47G are within error of each other in abundance fitness: -0.067 ± 0.073 for the first, -0.123 ± 0.074 for the second.

V30Y and V30A are within error of each other in abundance fitness: -0.038 ± 0.25 for the first, -0.253 ± 0.26 for the second.

Compared with G20V, G20S is higher in abundance fitness: -0.441 ± 0.054 for the first, -0.112 ± 0.062 for the second.

C22F and C22Q are within error of each other in abundance fitness: -0.133 ± 0.1 for the first, -0.256 ± 0.08 for the second.

Compared with C22S, C22L is lower in abundance fitness: 0.049 ± 0.057 for the first, -0.102 ± 0.056 for the second.

C22M and C22N are within error of each other in abundance fitness: -0.062 ± 0.077 for the first, -0.192 ± 0.11 for the second.

G32A and G32K are within error of each other in abundance fitness: -0.096 ± 0.067 for the first, -0.1 ± 0.079 for the second.

First: G32D
Second: G32R
The abundance fitness of the first is lower: -0.311 ± 0.076 for the first, -0.029 ± 0.062 for the second.

Going from G32S to G32W, the abundance fitness falls from -0.195 ± 0.054 to -0.377 ± 0.11.

Compared with Q23P, Q23F is lower in abundance fitness: -0.044 ± 0.07 for the first, -0.265 ± 0.087 for the second.

Q23E and Q23R are within error of each other in abundance fitness: -0.068 ± 0.09 for the first, -0.019 ± 0.051 for the second.

K15T and K15M are within error of each other in abundance fitness: -0.196 ± 0.081 for the first, -0.148 ± 0.075 for the second.

K15P and K15F are within error of each other in abundance fitness: -0.052 ± 0.084 for the first, -0.175 ± 0.11 for the second.

K15V and K15Q are within error of each other in abundance fitness: -0.228 ± 0.074 for the first, -0.119 ± 0.075 for the second.

K15E and K15S are within error of each other in abundance fitness: -0.083 ± 0.13 for the first, -0.221 ± 0.065 for the second.

Compared with L64S, L64C is lower in abundance fitness: 0.068 ± 0.058 for the first, -0.181 ± 0.1 for the second.

Going from L64N to L64F, the abundance fitness falls from 0.065 ± 0.096 to -0.326 ± 0.099.

First: L64T
Second: W65I
The abundance fitness of the first is higher: 0.015 ± 0.061 for the first, -1.3 ± 0.21 for the second.

Compared with W65Y, W65M is lower in abundance fitness: -0.309 ± 0.11 for the first, -0.744 ± 0.08 for the second.

Compared with W65A, W65F is higher in abundance fitness: -0.666 ± 0.064 for the first, -0.326 ± 0.095 for the second.

W65C and F59C are within error of each other in abundance fitness: -0.718 ± 0.12 for the first, -0.817 ± 0.23 for the second.

Compared with F59T, F59Q is lower in abundance fitness: -0.686 ± 0.12 for the first, -1.13 ± 0.2 for the second.

F59N and L66Q are within error of each other in abundance fitness: -1.2 ± 0.24 for the first, -1.17 ± 0.15 for the second.

Going from L66V to L66E, the abundance fitness falls from -0.223 ± 0.061 to -0.909 ± 0.15.

L66P and L66D are within error of each other in abundance fitness: -0.959 ± 0.091 for the first, -1.21 ± 0.33 for the second.

L66T and L66S are within error of each other in abundance fitness: -0.8 ± 0.075 for the first, -0.82 ± 0.072 for the second.

First: K13R
Second: K13G
The abundance fitness of the first is higher: -0.119 ± 0.056 for the first, -0.419 ± 0.062 for the second.

First: K13L
Second: K13P
The abundance fitness of the first is lower: -0.326 ± 0.045 for the first, -0.159 ± 0.059 for the second.

Going from K13F to K13Q, the abundance fitness rises from -0.768 ± 0.079 to -0.1 ± 0.07.

First: K13D
Second: K13Y
The abundance fitness of the first is higher: -0.262 ± 0.081 for the first, -0.475 ± 0.11 for the second.

First: K13A
Second: G27R
The abundance fitness of the first is lower: -0.339 ± 0.059 for the first, -0.177 ± 0.054 for the second.

Going from G27C to G27V, the abundance fitness falls from -0.019 ± 0.074 to -0.231 ± 0.047.

Going from G27S to G27A, the abundance fitness rises from -0.008 ± 0.053 to 0.1 ± 0.054.

G68F and S39Q are within error of each other in abundance fitness: -0.265 ± 0.19 for the first, -0.007 ± 0.07 for the second.

First: S39W
Second: S39V
The abundance fitness of the first is lower: -0.28 ± 0.072 for the first, -0.073 ± 0.052 for the second.

Q35P and Q35E are within error of each other in abundance fitness: 0.121 ± 0.068 for the first, 0.124 ± 0.063 for the second.

Q35K and Q35T are within error of each other in abundance fitness: -0.016 ± 0.067 for the first, 0.01 ± 0.067 for the second.

Q35G and Q35I are within error of each other in abundance fitness: -0.003 ± 0.059 for the first, -0.116 ± 0.089 for the second.

Q35H and K50V are within error of each other in abundance fitness: -0.024 ± 0.11 for the first, -0.066 ± 0.053 for the second.

K50F and K50H are within error of each other in abundance fitness: -0.141 ± 0.091 for the first, -0.184 ± 0.093 for the second.

Compared with I25L, I25E is higher in abundance fitness: -0.09 ± 0.052 for the first, 0.125 ± 0.079 for the second.

First: I25D
Second: I25S
The abundance fitness of the first is higher: 0.156 ± 0.11 for the first, -0.03 ± 0.059 for the second.

R10I and R10H are within error of each other in abundance fitness: -0.301 ± 0.094 for the first, -0.226 ± 0.12 for the second.

R10L and R10D are within error of each other in abundance fitness: -0.246 ± 0.049 for the first, -0.112 ± 0.11 for the second.

Compared with L16S, L16V is lower in abundance fitness: -0.033 ± 0.055 for the first, -0.162 ± 0.062 for the second.

L16D and L16E are within error of each other in abundance fitness: -0.189 ± 0.12 for the first, -0.032 ± 0.09 for the second.

L16A and L16F are within error of each other in abundance fitness: -0.188 ± 0.067 for the first, -0.257 ± 0.095 for the second.

L16C and A17Q are within error of each other in abundance fitness: -0.073 ± 0.087 for the first, -0.115 ± 0.077 for the second.

A17M and A17N are within error of each other in abundance fitness: -0.171 ± 0.075 for the first, -0.123 ± 0.17 for the second.

A17I and A17V are within error of each other in abundance fitness: -0.022 ± 0.1 for the first, -0.087 ± 0.047 for the second.

A17T and Q1R are within error of each other in abundance fitness: -0.163 ± 0.069 for the first, -0.046 ± 0.052 for the second.

Going from Q1T to Q1P, the abundance fitness falls from -0.038 ± 0.076 to -0.277 ± 0.086.

Q1K and Q1E are within error of each other in abundance fitness: 0.076 ± 0.065 for the first, 0.214 ± 0.091 for the second.

Going from Q1N to G55D, the abundance fitness rises from -0.412 ± 0.11 to 0.084 ± 0.074.

Going from G55W to G55E, the abundance fitness rises from -0.189 ± 0.069 to 0.17 ± 0.072.

G55M and G55L are within error of each other in abundance fitness: -0.018 ± 0.092 for the first, -0.045 ± 0.044 for the second.

Going from G55N to G55Q, the abundance fitness rises from -0.792 ± 0.21 to 0.033 ± 0.067.

I21H showed an abundance fitness of -0.425 ± 0.11.
